Test results as given in patent US20190185564A1 (AGENCY FOR SCIENCE TECHNOLOGY AND RESEARCH, published 2019).
Changes are numbered by the printed parent chain. Where two headings read alike, the source gives them in different places.

B1: anti-TIM-3 antibody clone G7 (antibody, V domains shown)
VH: EVQLVQSGAEVKKPGASVKVSCKASGYTFTSYYMHWVRQAPGQGLEWMGIINPSGGSTSYAQKFQGRVTMTRDTSTSTVYMELSSLRSEDTAVYYCARDQYSSGWYYYGMDVWGQGTTVTVSS
VL: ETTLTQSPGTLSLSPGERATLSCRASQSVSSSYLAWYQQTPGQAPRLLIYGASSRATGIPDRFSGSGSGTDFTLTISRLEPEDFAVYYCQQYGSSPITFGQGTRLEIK
notes: Screened as Fab, and SPR was recorded for 'each candidate Fab'
B2: anti-TIM-3 antibody clone G9 (antibody, V domains shown)
VH: B1 VH with E1Q, V5Q, Q100L, S103Y, W105F
VL: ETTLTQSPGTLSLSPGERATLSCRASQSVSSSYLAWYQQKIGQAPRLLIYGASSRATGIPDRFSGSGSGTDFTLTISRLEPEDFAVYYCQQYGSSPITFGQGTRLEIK
notes: as for B1
B3: anti-TIM-3 antibody clone G6 (antibody, V domains shown)
VH: QVQLQESGPGLVKPSGTLSLTCAVSGGSISSSNWWSWVRQPPGKGLEWIGEIYHSGSTNYNPSLKSRVTISVDKSKNQFSLKLSSVTAADTAVYYCARVVAVAGTVDYWGQGTLVTVSS
VL: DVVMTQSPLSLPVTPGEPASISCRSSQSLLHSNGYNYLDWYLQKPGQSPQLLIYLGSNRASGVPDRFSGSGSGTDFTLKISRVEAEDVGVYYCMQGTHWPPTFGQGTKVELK
notes: as for B1
B4: anti-TIM-3 antibody clone A3 (antibody, V domains shown)
VH: QVQLVQSGAEVKKPGASVKVSCKASGYTFTSYYMHWVRQAPGQGLEWMGIINPSGGSTSYAQKFQGRVTMTRDTSTSTVYMELSSLRSEDTAVYYCARSPGVVTALFDYWGQGTLVTVSS
VL: DIQMTQSPSFMSASVGDRVTITCRASQDIGSYLAWYQQKPGKAPKLLIYAASTLQSGVPSRFSGSGSGTDFTLTINSLQPEDFATYYCQQSYSSPPTFGPGTTLEIK
notes: Isolated from a human phage library and screened as Fab; SPR was recorded for 'each candidate Fab'
B5: anti-TIM-3 antibody clone B10 (antibody, V domains shown)
VH: QVQLQESGPGLVKASETLSLTCTVSGGSIGSSDYYWGWIRQPPGKGLEWIGSIYYSGSTYYNPSLKSRVTMSVDTPNNQFSLKLSSVTAADTAVYYCARGEHRGEFDYWGQGTLVTVSS
VL: EIVLTQSPATLSFSPGERATLSCRASQSVGSYLAWYQQRPGQAPRPLIYDATNRATGIPTRFSGSGSGTDFTLTISSLEPEDFATYYCQHRRTFGRGTKLEIK
notes: as for B1
B6: anti-TIM-3 antibody clone A11 (antibody, V domains shown)
VH: QVQLQQWGAGLLKPSETLSLTCAVYGGSFSGYYWSWIRQPPGKGLEWIGEINHSGSTNYNPSLKSRVTISVDTSKNQFSLKLSSVTAADTAVYYCARGYVAGFDYWGQGTLVTVSS
VL: QSVVTQPPSVSAAPGQKVTISCSGSSSNIGNNYVSWYQQLPGTAPKLLIYGNNWRPSGIPDRFSGSKSGTSATLAISGLQTGDEADYYCETWDSSLSAGVFGGGTKLTVL
notes: as for B1

How the values were obtained:
Mouse Tim-3-Fc [1] = target: T1, Mouse Tim-3-Fc (mouse, UniProt Q8VIM0); experiment: ELISA on coated mouse TIM-3-Fc, absorbance 450-670 nm
T1 construct: coupled to human Fc; ELISA coating antigen for the cross-reactivity test; also called mouse TIM-3 coupled to human Fc
Method: (§1) After a small-scale induction in HB2151 cells, Fab antibodies were screened by ELISA. […] After extensive washes in PBS Tween-20, Fab-containing supernatants from induction plates were transferred into the ELISA plates in the presence of 7% milk in PBS. After 90 minutes at room temperature under agitation and extensive washes, a goat anti-human Fab antibody coupled to HRP was added. One hour later, plates were washed and TMB substrate added. The reaction was stopped with 1M HCl and optical density measured at 450 nm with a reference at 670 nm. Antibodies giving an absorbance >0.1 were selected as positive.

Mouse Tim-3-Fc [2] = target: T1, Mouse Tim-3-Fc; experiment: as above; remark: listed apart in the source
Method: as §1

Binder	binding result (Mouse Tim-3-Fc [1])	binding result (Mouse Tim-3-Fc [2])
B1	no binding	
B2	no binding	
B3	no binding	
B4	no binding	
B5	no binding	
B6		no binding
